This note sets out measurements from patent US20110091994A1, “Methods for Screening Compounds for Treating and/or Preventing an Hepatitis C Virus Infection” (priority 2008, published 2011).

Where two headings read alike, the source gives them in different places.

For assay [1], the target named is T1, HCV ORFs (Gal4-DB fusions) (Hepatitis C virus genotype 1b, UniProt Q9WMX2).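 Also: yeast two-hybrid screens using HCV genotype 1b proteins fused to Gal4-DB as baits against prey cDNA libraries from human spleen and foetal brain, IMAP1 via transformation and IMAP2 via mating.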
T1 construct: expressed in transfected cells; host or cells: Saccharomyces cerevisiae MAV203 (IMAP1) / AH109 (IMAP2)
It counts as binding, HCV genotype 1b, isolate con1. The note with it: human protein as prey.

The target of a further assay is T2, HCV proteins (Hepatitis C virus genotype 1b, UniProt Q9WMX2).
T2 construct: expressed in transfected cells
Kind of assay: Validation by Y2H pairwise matrices.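 Also: yeast two-hybrid pairwise tests of interactions first found in Y2H screens of HCV bait proteins against human cDNA libraries.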 It counts as binding.

B1: USP19 (protein, UniProt O94966 1-1318, looked up)
Ubiquitin carboxyl-terminal …: MSGGASATGPRRGPPGLEDTTSKKKQKDRANQESKDGDPRKETGSRYVAQAGLEPLASGDPSASASHAAGITGSRHRTRLFFPSSSGSASTPQEEQTKEGACEDPHDLLATPTPELLLDWRQSAEEVIVKLRVGVGPLQLEDVDAAFTDTDCVVRFAGGQQWGGVFYAEIKSSCAKVQTRKGSLLHLTLPKKVPMLTWPSLLVEADEQLCIPPLNSQTCLLGSEENLAPLAGEKAVPPGNDPVSPAMVRSRNPGKDDCAKEEMAVAADAATLVDEPESMVNLAFVKNDSYEKGPDSVVVHVYVKEICRDTSRVLFREQDFTLIFQTRDGNFLRLHPGCGPHTTFRWQVKLRNLIEPEQCTFCFTASRIDICLRKRQSQRWGGLEAPAARVGGAKVAVPTGPTPLDSTPPGGAPHPLTGQEEARAVEKDKSKARSEDTGLDSVATRTPMEHVTPKPETHLASPKPTCMVPPMPHSPVSGDSVEEEEEEEKKVCLPGFTGLVNLGNTCFMNSVIQSLSNTRELRDFFHDRSFEAEINYNNPLGTGGRLAIGFAVLLRALWKGTHHAFQPSKLKAIVASKASQFTGYAQHDAQEFMAFLLDGLHEDLNRIQNKPYTETVDSDGRPDEVVAEEAWQRHKMRNDSFIVDLFQGQYKSKLVCPVCAKVSITFDPFLYLPVPLPQKQKVLPVFYFAREPHSKPIKFLVSVSKENSTASEVLDSLSQSVHVKPENLRLAEVIKNRFHRVFLPSHSLDTVSPSDTLLCFELLSSELAKERVVVLEVQQRPQVPSVPISKCAACQRKQQSEDEKLKRCTRCYRVGYCNQLCQKTHWPDHKGLCRPENIGYPFLVSVPASRLTYARLAQLLEGYARYSVSVFQPPFQPGRMALESQSPGCTTLLSTGSLEAGDSERDPIQPPELQLVTPMAEGDTGLPRVWAAPDRGPVPSTSGISSEMLASGPIEVGSLPAGERVSRPEAAVPGYQHPSEAMNAHTPQFFIYKIDSSNREQRLEDKGDTPLELGDDCSLALVWRNNERLQEFVLVASKELECAEDPGSAGEAARAGHFTLDQCLNLFTRPEVLAPEEAWYCPQCKQHREASKQLLLWRLPNVLIVQLKRFSFRSFIWRDKINDLVEFPVRNLDLSKFCIGQKEEQLPSYDLYAVINHYGGMIGGHYTACARLPNDRSSQRSDVGWRLFDDSTVTTVDESQVVTRYAYVLFYRRRNSPVERPPRAGHSEHHPDLGPAAEAAASQASRIWQELEAEEEPVPEGSGPLGPWGPQDWVGPLPRGPTTPDEGCLRYFVLGTVAALVALVLNVFYPLVSQSRWR
For the molecule B1, in assay [1] (HCV protein NS5A as bait), the “IMAP Y2H IMAP1 (number of IST)” value was 3. The Y2H matrices result with HCV proteins (interaction with HCV protein NS5A) is “+”.

B2: CEP68 (protein, UniProt Q76N32 1-757, looked up)
Centrosomal protein of 68 kDa: MALGEEKAEAEASEDTKAQSYGRGSCRERELDIPGPMSGEQPPRLEAEGGLISPVWGAEGIPAPTCWIGTDPGGPSRAHQPQASDANREPVAERSEPALSGLPPATMGSGDLLLSGESQVEKTKLSSSEEFPQTLSLPRTTTICSGHDADTEDDPSLADLPQALDLSQQPHSSGLSCLSQWKSVLSPGSAAQPSSCSISASSTGSSLQGHQERAEPRGGSLAKVSSSLEPVVPQEPSSVVGLGPRPQWSPQPVFSGGDASGLGRRRLSFQAEYWACVLPDSLPPSPDRHSPLWNPNKEYEDLLDYTYPLRPGPQLPKHLDSRVPADPVLQDSGVDLDSFSVSPASTLKSPTNVSPNCPPAEATALPFSGPREPSLKQWPSRVPQKQGGMGLASWSQLASTPRAPGSRDARWERREPALRGAKDRLTIGKHLDMGSPQLRTRDRGWPSPRPEREKRTSQSARRPTCTESRWKSEEEVESDDEYLALPARLTQVSSLVSYLGSISTLVTLPTGDIKGQSPLEVSDSDGPASFPSSSSQSQLPPGAALQGSGDPEGQNPCFLRSFVRAHDSAGEGSLGSSQALGVSSGLLKTRPSLPARLDRWPFSDPDVEGQLPRKGGEQGKESLVQCVKTFCCQLEELICWLYNVADVTDHGTAARSNLTSLKSSLQLYRQFKKDIDEHQSLTESVLQKGEILLQCLLENTPVLEDVLGRIAKQSGELESHADRLYDSILASLDMLAGCTLIPDKKPMAAMEHPCEGV
Take B2: in assay [1] (HCV protein NS5B as bait), the “IMAP Y2H IMAP1 (number of IST)” value was 1. Besides, in the assay with HCV proteins (interaction with HCV protein NS5B), the Y2H matrices result is reported as “+”.

B3: FXYD6 (protein, UniProt Q9H0Q3 19-95, looked up)
FXYD domain-containing ion …: SAAEKEKEMDPFHYDYQTLRIGGLVFAVVLFSVGILLILSRRCKCSFNQKPRAPGDEEAQVENLITANATEPQKAEN
Take B3: in assay [1] (HCV protein p7 as bait), the “IMAP Y2H IMAP1 (number of IST)” value was 1. Also, the Y2H matrices entry with HCV proteins (interaction with HCV protein p7) is recorded as “+”.
